Measured values reported in patent US20030027981A1, “Urokinase-type plasminogen activator receptor” (priority 1989, published 2003).
Blank lines part the entries; values can stand above or below the molecule they belong to.

Key:
[1] = tested on: HT-1080 cells; assay: Plasmin release from plasmin-loaded HT-1080 cells; assay type: cell-based, human; conditions: 1 mM tranexamic acid added to the serum-containing medium
Description: FIG. 24. Plasmin release from HT-1080 cells into serum-free and serum-containing media. Confluent layers of HT-1080 cells were first loaded with plasmin by incubation for 1 hour at 37° C. in serum-free MEM medium (0.5 ml) containing human plasmin (0-5 μg/ml). After rinsing the cell layers three times, they were incubated for 2 hours at 37° C. with either serum-free medium (∘ - - - ∘), medium containing 10% heat-inactivated and plasminogen-depleted fetal calf serum (● - - - ●), or the latter with tranexamic acid (100 μM) (▪ - - - ▪). Plasmin was then assayed in the cell-bound fraction (A) and the media (B). At the time of transfer to new media, there was approximately 28 ng of plasmin bound to the cells from the pretreatment with 2.5 μg of plasmin/well.
In the Examples concerning plasmin binding to cells from medium, human plasmin (approximately 18 CU/mg; Kabi Diagnostica, Stockholm, Sweden) was added to the cultures at final concentrations of 0-5 μg/ml. The cells were incubated for 3 hours at 37° C. before assay of cell-bound and supernatant plasmin (see below). For plasmin release experiments, cells were loaded for 1 hour at 37° C. with 0-5 μg/ml plasmin in serum-free medium, then rinsed three times with MEM.
Plasmin bound to the cell layer was recovered and assayed as follows. After harvest of culture medium, the cells were rinsed three times with PBS (plasmin assays of further rinses were negative); then the bound plasmin was specifically eluted (Miles, L. A., and E. F. Plow, “Binding and activation of plasminogen on the platelet surface”, J. Biol. Chem. 260: 4303-4311, 1985) with a solution of 1 mM tranexamic acid in the same rinsing solution (150 μl/well). Plasmin activity was assayed in eluate samples (50 μl) as above with an incubation time of 3 hours at 37° C. Tranexamic acid at 1 mM had no effect on the thioesterase activity of plasmin in these assays.

[2] = molecular target: laminin; conditions: immobilized laminin; cited from earlier work
[3] = molecular target: fibronectin (Homo sapiens, UniProt P02751); conditions: immobilized fibronectin; cited from earlier work
[4] = tested on: cultured cells; conditions: plasminogen, cultured cells; cited from earlier work
[5] = molecular target: thrombospondin (Homo sapiens, UniProt P07996); conditions: purified thrombospondin; cited from earlier work
[6] = molecular target: u-PA (Homo sapiens, UniProt P00749); assay: Inhibition of u-PA in solution by PAI's (association rate constants); assay type: biochemical
Excerpt: Plasminogen was purified from fresh human plasma as previously described (Danø and Reich, 1979), and was further separated into its two isoforms by elution from lysine-Sepharose with a linear gradient of 6-amino-hexanoic acid. Plasminogen isoform 2 was used in all experiments described here. u-PA (Mr 55,000) was obtained either by plasmin activation of pro-uPA (Ellis et al., 1987) or as Ukidan (Serono). Both preparations were greater than 95% high molecular weight u-PA by SDS-polyacrylamide gel electrophoresis. The concentration of active u-PA in these preparations was determined by active-site titration with p-nitrophenyl-p-guanidinobenzoate (Sigma Chem. Co.). DFP-inactivated u-PA was prepared as described in Example 1. […] The concentrations of active inhibitor in the various PAI preparations were determined by titration against u-PA immediately before use in the kinetic experiments. […] Residual u-PA activity was then measured by hydrolysis of 0.2 mM Glu-Gly-Arg-AMC (Bachem, Switzerland).
The effect of PAI's on the activity of cell-bound u-PA was determined by the addition of varying concentrations of PAI-1 (0.18-18.4 nM) or PAI-2 (1.13-56.7 nM) to the incubations at the same time as the addition of plasminogen. […]
[pln]∞ was calculated from the relationship: […]
where Δ[pln]0 is the initial rate of plasmin generation which was determined in control incubations in the absence of inhibitors. […]

thrombospondin, sequence (P07996 19-1170): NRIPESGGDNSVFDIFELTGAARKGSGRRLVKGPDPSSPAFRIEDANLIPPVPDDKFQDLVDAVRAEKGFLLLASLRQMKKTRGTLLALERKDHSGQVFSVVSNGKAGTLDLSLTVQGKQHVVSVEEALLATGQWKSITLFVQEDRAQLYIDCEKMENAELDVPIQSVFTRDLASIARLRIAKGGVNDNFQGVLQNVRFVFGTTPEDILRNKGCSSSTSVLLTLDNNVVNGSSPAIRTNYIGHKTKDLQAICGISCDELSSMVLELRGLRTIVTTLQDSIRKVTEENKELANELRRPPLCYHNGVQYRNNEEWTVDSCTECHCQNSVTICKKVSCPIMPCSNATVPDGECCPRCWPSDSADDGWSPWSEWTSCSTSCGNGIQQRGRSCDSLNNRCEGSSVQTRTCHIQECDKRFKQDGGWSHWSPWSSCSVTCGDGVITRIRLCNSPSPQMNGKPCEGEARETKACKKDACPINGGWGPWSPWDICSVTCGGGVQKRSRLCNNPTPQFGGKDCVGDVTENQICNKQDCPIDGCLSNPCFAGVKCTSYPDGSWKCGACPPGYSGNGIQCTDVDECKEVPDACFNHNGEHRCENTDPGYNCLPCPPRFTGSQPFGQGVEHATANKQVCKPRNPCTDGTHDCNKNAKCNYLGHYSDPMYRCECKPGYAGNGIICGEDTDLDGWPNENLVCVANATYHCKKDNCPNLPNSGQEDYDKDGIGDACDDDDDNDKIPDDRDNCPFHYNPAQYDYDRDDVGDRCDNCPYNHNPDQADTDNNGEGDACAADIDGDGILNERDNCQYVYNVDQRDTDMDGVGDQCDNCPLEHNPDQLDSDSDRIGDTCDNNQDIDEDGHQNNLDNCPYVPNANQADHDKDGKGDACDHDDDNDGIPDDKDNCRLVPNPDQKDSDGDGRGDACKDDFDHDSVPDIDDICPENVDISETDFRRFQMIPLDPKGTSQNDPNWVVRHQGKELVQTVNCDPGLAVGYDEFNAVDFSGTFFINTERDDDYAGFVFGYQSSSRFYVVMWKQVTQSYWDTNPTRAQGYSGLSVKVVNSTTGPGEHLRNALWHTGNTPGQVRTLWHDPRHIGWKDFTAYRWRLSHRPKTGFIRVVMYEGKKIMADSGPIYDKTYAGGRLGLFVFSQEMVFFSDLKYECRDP
fibronectin, sequence (P02751 32-2477, species assumed): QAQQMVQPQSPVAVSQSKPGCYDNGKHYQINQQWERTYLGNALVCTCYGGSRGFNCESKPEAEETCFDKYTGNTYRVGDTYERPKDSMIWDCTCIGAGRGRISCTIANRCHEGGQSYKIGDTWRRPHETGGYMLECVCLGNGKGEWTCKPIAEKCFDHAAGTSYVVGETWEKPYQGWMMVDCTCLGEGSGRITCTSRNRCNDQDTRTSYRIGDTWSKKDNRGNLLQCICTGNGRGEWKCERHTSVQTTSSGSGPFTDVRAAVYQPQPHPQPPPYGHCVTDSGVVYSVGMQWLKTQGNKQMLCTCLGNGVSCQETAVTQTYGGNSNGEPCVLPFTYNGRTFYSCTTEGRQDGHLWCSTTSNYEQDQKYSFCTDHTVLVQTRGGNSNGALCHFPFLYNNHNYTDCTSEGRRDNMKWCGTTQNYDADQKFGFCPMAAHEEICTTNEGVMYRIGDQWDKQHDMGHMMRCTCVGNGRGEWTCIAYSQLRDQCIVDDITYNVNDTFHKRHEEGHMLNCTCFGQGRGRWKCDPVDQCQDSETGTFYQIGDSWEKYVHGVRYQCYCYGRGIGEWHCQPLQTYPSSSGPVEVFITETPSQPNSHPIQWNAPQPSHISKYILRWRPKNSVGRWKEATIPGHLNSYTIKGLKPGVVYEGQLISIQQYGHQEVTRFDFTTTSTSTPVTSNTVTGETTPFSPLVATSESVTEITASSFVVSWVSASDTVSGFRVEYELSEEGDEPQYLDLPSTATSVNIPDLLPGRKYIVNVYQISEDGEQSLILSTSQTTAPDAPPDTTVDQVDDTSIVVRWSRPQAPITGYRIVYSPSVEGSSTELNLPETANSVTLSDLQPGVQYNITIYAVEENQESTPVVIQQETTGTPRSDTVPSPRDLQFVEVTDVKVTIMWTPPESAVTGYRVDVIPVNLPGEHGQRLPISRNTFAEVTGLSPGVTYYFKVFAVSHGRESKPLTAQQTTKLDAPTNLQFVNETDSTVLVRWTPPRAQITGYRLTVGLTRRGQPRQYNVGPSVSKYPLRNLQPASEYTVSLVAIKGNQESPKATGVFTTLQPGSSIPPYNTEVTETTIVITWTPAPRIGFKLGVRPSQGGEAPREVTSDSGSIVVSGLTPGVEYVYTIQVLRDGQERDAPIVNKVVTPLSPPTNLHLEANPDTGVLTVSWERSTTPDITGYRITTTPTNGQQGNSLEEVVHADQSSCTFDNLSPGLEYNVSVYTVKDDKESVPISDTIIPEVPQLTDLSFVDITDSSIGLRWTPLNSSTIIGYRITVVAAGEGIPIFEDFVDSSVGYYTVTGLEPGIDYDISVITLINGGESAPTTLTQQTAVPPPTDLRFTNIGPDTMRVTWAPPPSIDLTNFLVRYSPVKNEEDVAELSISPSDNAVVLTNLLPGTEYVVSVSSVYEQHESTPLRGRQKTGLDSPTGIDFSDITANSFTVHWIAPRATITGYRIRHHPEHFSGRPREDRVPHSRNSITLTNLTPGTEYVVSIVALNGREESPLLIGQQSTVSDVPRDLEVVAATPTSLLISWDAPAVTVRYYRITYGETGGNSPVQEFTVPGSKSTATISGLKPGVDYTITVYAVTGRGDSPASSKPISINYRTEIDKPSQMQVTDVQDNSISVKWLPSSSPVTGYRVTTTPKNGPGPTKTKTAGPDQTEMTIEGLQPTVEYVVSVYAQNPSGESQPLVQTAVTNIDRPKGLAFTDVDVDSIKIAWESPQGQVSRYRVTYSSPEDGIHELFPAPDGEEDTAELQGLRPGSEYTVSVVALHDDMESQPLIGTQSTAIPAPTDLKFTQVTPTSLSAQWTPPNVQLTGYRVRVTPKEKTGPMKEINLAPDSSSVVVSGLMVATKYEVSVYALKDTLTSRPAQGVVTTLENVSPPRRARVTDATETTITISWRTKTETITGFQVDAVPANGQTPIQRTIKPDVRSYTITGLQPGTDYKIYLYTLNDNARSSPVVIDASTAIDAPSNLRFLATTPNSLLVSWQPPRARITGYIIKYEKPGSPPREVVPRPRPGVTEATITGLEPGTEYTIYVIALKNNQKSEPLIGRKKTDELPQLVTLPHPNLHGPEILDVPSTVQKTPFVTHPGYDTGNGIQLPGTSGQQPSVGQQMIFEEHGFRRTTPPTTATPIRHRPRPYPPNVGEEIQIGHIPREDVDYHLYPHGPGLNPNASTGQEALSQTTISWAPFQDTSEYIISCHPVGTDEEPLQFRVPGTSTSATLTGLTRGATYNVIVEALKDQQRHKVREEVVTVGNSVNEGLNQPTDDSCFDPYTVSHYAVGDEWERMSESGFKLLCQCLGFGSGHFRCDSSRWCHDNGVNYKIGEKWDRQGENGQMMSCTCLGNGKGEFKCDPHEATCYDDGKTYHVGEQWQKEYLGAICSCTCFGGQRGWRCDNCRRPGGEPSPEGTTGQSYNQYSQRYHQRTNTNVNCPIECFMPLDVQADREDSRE

Molecule: NC[C@H]1CC[C@H](C(=O)O)CC1 [TA, tranexamic acid]
Plasmin activity recovered from the cells [1]: no plasmin activity could be recovered from the cells

Molecule: Plg: native human plasminogen (glutamic acid N-terminal) purified from human plasma on lysine-Sepharose
Kd [2]: 0.003 µM
Kd [3]: 0.09 µM
Kd [4]: 1 µM
Kd [5]: 0.035 µM

Association rate constant ([6]; direct assay with u-PA specific fluorogenic peptide substrate): 520000 M⁻¹ s⁻¹
Association rate constant ([6]; plasminogen activation assay): 530000 M⁻¹ s⁻¹
B1: PAI-2: human type-2 plasminogen activator inhibitor purified from U937 cells (protein, UniProt P05120 1-415, looked up)
Plasminogen activator …: MEDLCVANTLFALNLFKHLAKASPTQNLFLSPWSISSTMAMVYMGSRGSTEDQMAKVLQFNEVGANAVTPMTPENFTSCGFMQQIQKGSYPDAILQAQAADKIHSSFRSLSSAINASTGNYLLESVNKLFGEKSASFREEYIRLCQKYYSSEPQAVDFLECAEEARKKINSWVKTQTKGKIPNLLPEGSVDGDTRMVLVNAVYFKGKWKTPFEKKLNGLYPFRVNSAQRTPVQMMYLREKLNIGYIEDLKAQILELPYAGDVSMFLLLPDEIADVSTGLELLESEITYDKLNKWTSKDKMAEDEVEVYIPQFKLEEHYELRSILRSMGMEDAFNKGRANFSGMSERNDLFLSEVFHQAMVDVNEEGTEAAAGTGGVMTGRTGHGGPQFVADHPFLFLIMHKITNCILFFGRFSSP
